Values quoted from earlier work, collected in publication PMC9437294.
pKd: −log10 of the molar value.

Target: 5-HT1A receptor C-terminus (UniProt P19327)

Yif1B N-terminal region (from UniProt Q6PEC3)
pKd: 7.43
